Laboratory results from article PMC7076219.

Target: ligands on KG1a cells (human (endogenous in KG1a))
Assay: flow cytometry on cells; KG1a cells stained with 10 ug/ml E-selectin protein in HBSS with 5% FBS and 2 mM CaCl2, 4 °C, 20 min; detected by Strep-tag II mAb and PE anti-mouse IgG1

percent of the live KG1a population bound: 86%
B1: E-S6 (monomeric full-length extracellular mouse E-selectin) (domain or fragment)
chain: WYYNASSELMTYDEASAYCQRDYTHLVAIQNKEEINYLNSNLKHSPSYYWIGIRKVNNVWIWVGTGKPLTEEAQNWAPGEPNNKQRNEDCVEIYIQRTKDSGMWNDERCNKKKLALCYTASCTNASCSGHGECIETINSYTCKCHPGFLGPNCEQAVTCKPQEHPDYGSLNCSHPFGPFSYNSSCSFGCKRGYLPSSMETTVRCTSSGEWSAPAPACHVVECEALTHPAHGIRKCSSNPGSYPWNTTCTFDCVEGYRRVGAQNLQCTSSGIWDNETPSCKAVTCDAIPQPQNGFVSCSHSTAGELAFKSSCNFTCEQSFTLQGPAQVECSAQGQWTPQIPVCKAVQCEALSAPQQGNMKCLPSASGPFQNGSSCEFSCEEGFELKGSRRLQCGPRGEWDSKKPTCSAVKCDDVPRPQNGVMECAHATTGEFTYKSSCAFQCNEGFSLHGSAQLECTSQGKWTQEVPSCQVVQCPSLDVPGKMNMSCSGTAVFGTVCEFTCPDDWTLNGSAVLTCGATGRWSGMPPTCEAPVSPTRP
